The target of assay [1] is HLA-A*0201 class I monomer of the iTopia Epitope Discovery System. Nature of the assay: iTopia affinity assay (ED50).
For assay [2] the target is unchanged. Kind of assay: iTopia off-rate assay.

Substance “PRAME425-433 analog, Nva at P2 (peptide)” returned a fold reduction of affinity vs native peptide in assay [1] of 3 fold.

“PRAME425-433 S425F L433Nle analog (peptide)” registered a fold increase of halftime of dissociation vs native peptide in assay [2] of 2 fold. The same substance yielded a fold reduction of ED50 vs native peptide in assay [1] above 4 fold.

Source of the values: patent publication US20130195901A1.
